Target: His-tagged human FcRn/β2-microglobulin complex (human) (UniProt P55899)
Assay: SPR; Biacore 8K, CM5 chip; His-tagged human FcRn/β2-microglobulin captured (45-60 RU) on covalently linked anti-His antibody; IgG1 injected as two-fold, eight-step series 75 nM to 0.29 nM; 25 °C; 20 mM phosphate pH 6.0, 137 mM NaCl, 2.7 mM KCl, 0.05% Tween-20; 1:1 binding model, apparent constants, KD = kd/ka; n=3 …

Kd: 67.6 nM | koff: 0.0439 s⁻¹ | kon: 649000 M⁻¹ s⁻¹
Substance: IgG1-Campath (antibody)

From paper PMC9546771
